{"source": "patent US20250257099A1", "about": "(priority 2022, published 2025)", "key": {"[1]": {"biological_target": "SARS-CoV-2 spike (S) glycoprotein (SARS-CoV-2) (UniProt P0DTC2)", "experiment": "cell-based or functional assay"}, "[2]": {"biological_target": "MERS-CoV spike (S) protein (MERS-CoV) (UniProt K9N5Q8)", "experiment": "cell-based or functional assay"}}, "data": [{"substance": "MERS-CoV C-lipopeptide (MERS-CoV S HRC residues 1251-1286, cholesterol-conjugated)", "values": [{"measurement": "IC50, plaque-neutralization test, SARS-CoV-2 infection of Vero E6 cells", "setting": "[1]", "value": 90, "unit": "nM"}, {"measurement": "IC50, plaque-neutralization test, MERS-CoV infection of Vero E6 cells", "setting": "[2]", "value": "< 8", "unit": "nM"}]}]}
